Experiments:
[1] = test system: T1, VEGF-121 (Homo sapiens), P15692-9; test: filter; conditions: P=Nap-dU
T1 sequence: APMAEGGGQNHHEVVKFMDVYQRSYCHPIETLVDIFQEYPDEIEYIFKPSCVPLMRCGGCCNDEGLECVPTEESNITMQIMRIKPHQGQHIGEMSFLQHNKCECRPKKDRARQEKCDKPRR

[2] = biological target: PDGF-BB (platelet-derived growth factor BB) (Homo sapiens) (UniProt P01127); test: filter
Sequence of PDGF-BB (platelet-derived growth factor BB) (Homo sapiens) (P01127 82-190): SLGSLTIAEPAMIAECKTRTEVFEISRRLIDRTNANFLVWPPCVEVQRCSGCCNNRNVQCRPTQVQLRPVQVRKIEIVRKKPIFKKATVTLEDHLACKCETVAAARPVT

For “CCCTCCATCAGCCGTTCAAGTGCTTGTAGGATTTAAATGAATTGGAGGA [4867-15_63]”, the Kd ([1]; C3 spacer at 40) was 15000 pM.
“CCCTCCATCAGCCGTTCAAGTGCTTGTAGGATTTAAATGGAATGGAGGA [4867-15_66]” gave a Kd ([1]; C3 spacer at 43) of 110 pM.
With “CCCTCCATCAGCCGTTCAAGTGCTTGTAGGATTTAAATGGAATGGAGGA [4867-15_67]” the Kd ([1]; C3 spacer at 44) was 150 pM.
Sequence “CCCTCCATCAGCCGTTCAAGTGCTTGTAGGATTTAAATGGAATTGAGGA [4867-15_68]” has a Kd ([1]; C3 spacer at 45) of 320 pM.
In the case of “CCCTCCATCAGCCGTTCAAGTGCTTGTAGGATTTAAATGGAATTGAGGA [4867-15_69]”, the Kd ([1]; C3 spacer at 46) is reported as 770 pM.
For “CCCTCCATCAGCCGTTCAAGTGCTTGTAGGATTTAAATGGAATTGGAGA [4867-15_71]”, the Kd ([1]; C3 spacer at 48) was 240 pM.
For TTACGTTACACGCGTTTATAGCG [4149-8_348], the Kd ([2]; Bn-dU, Pe-dU17, 2'-F A9, Heg, 2'-OMe) was over 10000 pM.
Sequence TTACGTTACACGCGTTTATAGCG [4149-8_350] has a Kd ([2]; Bn-dU, Pe-dU17, 2'-F C10, Heg, 2'-OMe) of over 10000 pM.
TTACGTTACACGCGTTTATAGCG [4149-8_351] was tested, and the Kd ([2]; Bn-dU, Pe-dU17, 2'-F C14, Heg, 2'-OMe) was over 10000 pM.
With TTACGTTACACGCGTTTATAGCG [4149-8_364] the Kd ([2]; Bn-dU, dT8, Heg5, 2'-OMe A3, A11, A21, G24) was over 10000 pM.
Work on TTACGTTACACGCGTTTATAGCGNT [4149-8_339] yielded a Kd ([2]; 4149-8_260 3'-3' dimer, C3, doubler) of 6.2 pM.
TTACGTTACACGCGTTTATAGCGNT [4149-8_340] was tested, and the Kd ([2]; 4149-8_260 3'-3' dimer, Heg, doubler) was 18.9 pM.
TTACGTTACACGCGTTTATAGCGNT [4149-8_341] was tested, and the Kd ([2]; 4149-8_260 3'-3' dimer, 2 Heg, doubler) was 27.2 pM.
TTACGTTACACGCGTTTATAGCGNT [4149-8_342] gave a Kd ([2]; 4149-8_260 3'-3' dimer, 3 Heg, doubler) of 18.1 pM.
In the case of TTACGTTACCGCGTTTATAGCG [4149-8_379], the Kd ([2]; BndU at 1,8,16,17,20, MBndU at 2, Heg at 5, C3 at 11, 2'-OMe at A3,C12,A19,A21,G24 and 2'-OMe-BnU at 7,18, Table 30 gives 1.6E-11, Table 31 5.2E-11) is reported as 20 pM.
Work on TTACGTTACCGCGTTTATAGCG [4149-8_391] yielded a Kd ([2]; BndU, PS 9,15, 2'-OMe, Heg 5, C3 11) of 12 pM.
TTACGTTACCGCGTTTATAGCG [4149-8_418] was tested, and the Kd ([2]; as 4149-8_379, 2'-OMe 15) was 210 pM.
For TTACGTTACCGCGTTTATAGCG [4149-8_419], the Kd ([2]; as 4149-8_379, 2'-OMe 15, NapdU 16) was 1300 pM.
In the case of TTACGTTACCGCGTTTATAGCG [4149-8_420], the Kd ([2]; as 4149-8_379, 2'-OMe 15, iBudU 16) is reported as 1400 pM.
For TTACGTTACCGCGTTTATAGCG [4149-8_421], the Kd ([2]; as 4149-8_379, 2'-OMe 13) was 19 pM.
TTACGTTACCGCGTTTATAGCG [4149-8_422] showed a Kd ([2]; as 4149-8_379, 2'-OMe 13,15) of 270 pM.
For TTACGTTACCGCGTTTATAGCG [4149-8_423], the Kd ([2]; as 4149-8_379, 2'-OMe 13, NapdU 16) was 33 pM.
TTACGTTACCGCGTTTATAGCG [4149-8_424] gave a Kd ([2]; as 4149-8_379, 2'-OMe 13,14) of 6600 pM.
TTACGTTACCGCGTTTATAGCG [4149-8_425] gave a Kd ([2]; as 4149-8_379, 2'-OMe 9) of 910 pM.
Sequence TTACGTTACCGCGTTTATAGCG [4149-8_426] has a Kd ([2]; as 4149-8_379 plus 2'-OMe A9,G13 or G15 as printed in SEQ:409) of 42000 pM.
Work on TTACGTTACCGCGTTTATAGCG [4149-8_431] yielded a Kd ([2]; as 4149-8_379, NapdU 16, PS 9,15,17) of 43 pM.
In the case of TTACGTTACCGCGTTTATAGCG [4149-8_432], the Kd ([2]; as 4149-8_379, PS 9,15,17) is reported as 29 pM.
TTACGTTACCGCGTTTATAGCG [4149-8_433] gave a Kd ([2]; as 4149-8_379, NapdU 16, PS 9,15) of 66 pM.
Sequence TTACGTTACCGCGTTTATAGCG [4149-8_434] has a Kd ([2]; as 4149-8_379, PS 9,15) of 32 pM.
For TTACGTTACCGCGTTTATAGCG [4149-8_435], the Kd ([2]; as 4149-8_379, BndU 2, NapdU 16, PS 9,15,17) was 16 pM.
In the case of TTACGTTACCGCGTTTATAGCG [4149-8_436], the Kd ([2]; as 4149-8_379, BndU 2, PS 9,15,17) is reported as 7.7 pM.
TTACGTTACCGCGTTTATAGCG [4149-8_437] gave a Kd ([2]; as 4149-8_379, BndU 2, NapdU 16, PS 9,15) of 7.4 pM.
For TTACGTTACCGCGTTTATAGCG [4149-8_453], the Kd ([2]; BndU, NapdU 16, 2'-OMe 3,7,12,13,18,19,21,24, PS 9,15,16,17, Heg 5, C3 11) was 2 pM.
TTACGTTACCGCGTTTATAGCG [4149-8_454] gave a Kd ([2]; BndU at 1,2,8,17,20, NapdU at 16, Heg 5, C3 11, 2'-OMe at 3,7,12,18,19,21,24, PS 3' of 9,15,16,17, 3'-idT) of 1.3 pM.
TTACGTTACCGCGTTTATAGCG [4149-8_455] gave a Kd ([2]; BndU, NapdU 16, 2'-OMe 3,7,12,13,18,19,21,24, PS 8,9,15,16,17, Heg 5, C3 11) of 17 pM.
In the case of TTACGTTACCGCGTTTATAGCG [4149-8_456], the Kd ([2]; BndU, NapdU 16, 2'-OMe 3,7,12,18,19,21,24, PS 8,9,15,16,17, Heg 5, C3 11) is reported as 27 pM.
With TTACGTTACGCGTTTATAGCG [4149-8_304] the Kd ([2]; Bn-dU, C3 linkers, 2'-OMe) was over 10000 pM.
For “TTCGACTACGTTACACGCGTTTATAGCG [4149-8_66]”, the Kd ([2]; Bn-dU, C3 at 3) was over 10000 pM.

Source: patent US20160177307
